Source: paper doi:10.1101/2024.06.21.600134 (bioRxiv, 2024)

Target: LPD-3 (C-terminally tagged, from lpd3::mvenus worms) (C. elegans, UniProt A0A0K3AWP8 1-4022)
Test: affinity purification with mass spectrometry

B1: Spigot (natural protein, C. elegans, UniProt Q4W5H0 1-276, looked up)
chain: MRIFVFDGTSVIYVCAVIILILIWVAIIGQRQIWRHRHNVARVRPQVSLSSRISSKKAVLLRETQLDTVMRLRCENQARLTDCISLQFHGEKPYVHRMIAVDEVTLEIDGQLNRIEGAVQRQAGESTYSYLKRIREKVPSIPLNLVHRIAFLQESARFRPEKFDVEQVMELRSLLNQFLRILSAEYDSLSDEPDMAAPRGVIASFYQFGQKIMPNNSGSKRRRNKFGGSDGVRLLMKEREEQLSLLSPLARASADSPAPAAHLRRQSDSHSALLPQ
binding result: binds
